Laboratory results as given in PMC9828552.

Legend:
purified protein [1] = substrate: O=CO; assay: purified protein; conditions: 3 mM NAD+, 25 mM potassium phosphate pH 7.5, 25 °C
purified protein [2] = substrate: C[C@H](N)C(=O)O; assay: purified protein; conditions: oxidative deamination, 1 mM NAD+, 100 mM NaHCO3 pH 10, 25 °C

Row | Protein | Km (purified protein [1]) | kcat (purified protein [1]) | Km (purified protein [2]) | kcat (purified protein [2])
1 | AlaDH-FDH-His fusion protein (FDH domain) ([Candida] boidinii) (protein) MKIVLVLYDAGKHAADEEKLYGCTENKLGIANWLKDQGHELITTSDKEGETSELDKHIPDADIIITTPFHPAYITKERLDKAKNLKLVVVAGVGSDHIDLDYINQTGKKISVLEVTGSNVVSVAEHVVMTMLVLVRNFVPAHEQIINHDWEVAAIAKDAYDIEGKTIATIGAGRIGYRVLERLLPFNPKELLYYDYQALPKEAEEKVGARRVENIEELVAQADIVTVNAPLHAGTKGLINKELLSKFKKGAWLVNTARGAICVAEDVAAALESGQLRGYGGDVWFPQPAPKDHPWRDMRNKYGAGNAMTPHYSGTTLDAQTRYAEGTKNILESFFTGKFDYRPQDIILLNGEYVTKAYGKHDKK | 7.8 ± 1.4 mM | 0.7 s⁻¹ | – | –
2 | WT FDH (CbFDH) ([Candida] boidinii) (protein) MKIVLVLYDAGKHAADEEKLYGCTENKLGIANWLKDQGHELITTSDKEGETSELDKHIPDADIIITTPFHPAYITKERLDKAKNLKLVVVAGVGSDHIDLDYINQTGKKISVLEVTGSNVVSVAEHVVMTMLVLVRNFVPAHEQIINHDWEVAAIAKDAYDIEGKTIATIGAGRIGYRVLERLLPFNPKELLYYDYQALPKEAEEKVGARRVENIEELVAQADIVTVNAPLHAGTKGLINKELLSKFKKGAWLVNTARGAICVAEDVAAALESGQLRGYGGDVWFPQPAPKDHPWRDMRNKYGAGNAMTPHYSGTTLDAQTRYAEGTKNILESFFTGKFDYRPQDIILLNGEYVTKAYGKHDKK | 5.0 ± 1.0 mM | 1.3 s⁻¹ | – | –
3 | AlaDH-FDH-His fusion protein (AlaDH domain) (Halomonas elongata DSM 2581) (protein) MKIAVPKEIKNHEYRVALTPSGARELVGRGHDVIVQAAAGEGAGFSDADFEAAGARLEADVAKLWDDAELILKVKEPQAEEVARLSAGQTLFTYLHLAAEESLTKGLLDSGATCIAYETITAPEGGLPLLAPMSTVAGRMAVQAGAHSLEKAQGGAGILLPGVPGVAPARVTVIGGGVVGENAARMALGLGAEVTVLDKSIPRLETLDDRYQGRMKTVFSTADALEEAVRESDLIIGAVLVPGAAAPKLITRDMLSDMKPGSVLVDVAIDQGGCFETSKPTTHAEPTYVVDGVVHYCVANMPGAVARTSTQALTNATLPFVVALADKGWQKALADDDHFAAGLNVHDGKLTYRAVAEAFGLEYVEAASLIG | – | – | 11.4 ± 1.5 mM | 1.7 s⁻¹
